Laboratory results taken from the supplement of paper PMC10567573.

B1: FAM189A2 (parent)
chain: GSEAAVIPLDLGCTQVTQDGDIPN

Variants of: B1
Experiment: protein stability index of a GFP-peptide fusion (GPS, HEK-293T) (PSI 1-6); higher = more stable
Conditions: c terminus: a fixed tail appended
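Note: lentivirally expressed fusions sorted by FACS into six bins by GFP to DsRed ratio, PSI derived from sequencing read proportions per bin multiplied by bin number.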

Protein stability index of substitutions, site by site:
G1: E 5.05 | W 4.31 | R 5.24 | Q 5.44 | Y 4.26 | A 5.53 | T 5.58 | F 4.84 | P 5.38 | V 5.2 | L 5.43 | D 5.34 | N 5.46 | H 5.29
V16: E 4.98 | R 5 | D 5.66 | K 5.09 | F 5.1 | C 5.31 | M 4.6 | Q 4.61 | L 5.06 | P 5.52 | A 4.95 | N 5.62 | G 5.14 | W 4.67
I22: V 5.54 | H 5.37 | C 5.67 | T 5.58 | E 5.53 | F 5.15 | S 5.64 | P 5.37 | M 5.08 | Y 5.26 | N 5.25 | L 5.39 | R 5.22 | W 5.34
D21: K 5.48 | I 4.45 | A 5.07 | V 4.94 | M 4.05 | F 3.95 | Q 4.92 | Y 4.46 | T 4.97 | C 4.71 | R 4.69 | N 4.77 | W 3.76 | P 4.77 | H 4.38 | E 5.03
A5: Y 4.15 | R 5.2 | T 5.43 | L 4.57 | K 5.19 | E 5.13 | I 3.79 | G 5.36 | C 4.9 | F 4.64 | P 5.68 | W 3.95 | M 5.01 | N 5.17 | D 5.74
L11: D 5.77 | P 5.45 | F 5.39 | Y 5.7 | C 5.25 | W 5.38 | R 5.72 | N 5.24 | T 5.44 | H 5.75 | G 5.6 | V 5.65 | M 5.31
T14: H 4.91 | I 4.99 | D 5.25 | C 4.97 | K 5.46 | S 5.27 | P 5.49 | E 5.51 | N 5.31 | L 5.17 | Q 5.57 | V 5.31 | Y 5.09
T17: M 5.14 | W 4.69 | I 4.75 | A 5.21 | Q 5.24 | R 5.18 | N 5.19 | D 5.46 | F 5 | S 5.5 | L 4.88 | H 5.17 | V 5.37 | G 5 | Y 4.87
L9: P 5.46 | Y 5.31 | N 5.55 | S 5.7 | E 5.41 | H 5.47 | A 4.91 | G 5.85 | W 4.67 | D 5.48 | Q 5.69
Q18: G 5.49 | C 5.27 | W 4.67 | D 5.63 | K 5.17 | N 4.68 | H 5.22 | Y 4.61 | F 4.26 | M 4.83 | S 5.54 | A 5.46 | L 5.25 | T 5.02
V6: C 5.43 | R 5.57 | H 5.51 | M 5.25 | I 5.25 | T 5.58 | S 5.58 | W 4.92 | G 5.33 | A 5.5 | Y 5.35 | K 5.71 | Q 5.33 | L 5.16 | F 4.91
D19: V 4.77 | P 5.06 | M 4.61 | E 5.34 | S 4.62 | C 4.4 | Q 5.12 | I 4.3 | R 4.57 | W 4.37 | Y 4.47 | A 5.36 | H 4.91
P23: T 5.5 | F 4.35 | V 5.29 | W 4.07 | N 5.87 | C 4.93 | Y 4.52 | Q 5.3 | L 5.25 | R 4.89 | A 5.3 | I 5.16
D10: R 5.07 | G 5.29 | L 4.2 | F 3.9 | H 5.26 | Y 4.39 | I 3.7 | P 5.26 | Q 4.92 | C 4.38 | M 4.02 | S 5.15 | T 5.34
E3: T 5.11 | C 4.83 | M 4.45 | N 5.1 | D 5.38 | S 5.1 | Y 4.18 | F 4.14 | K 5.35 | G 5.11 | P 5.23 | V 4.49
C13: N 5.61 | R 5.33 | L 5.46 | A 5.17 | H 5.63 | E 5.54 | T 5.48 | V 4.77 | K 5.18 | M 4.93 | S 5.43 | I 5.73 | G 5.54
Q15: V 5.12 | F 4.8 | E 5.77 | L 4.12 | H 5.51 | D 5.23 | A 5.45 | S 5.4 | G 5.46 | I 4.72 | Y 4.5 | R 4.17
S2: Y 4.8 | G 5.03 | M 4.89 | P 5.21 | N 5.52 | F 4.96 | R 5.61 | V 4.85 | K 4.64 | I 5.23 | T 5.01 | E 5.55
P8: M 3.41 | T 4.42 | E 4.85 | Y 2.83 | I 1.87 | Q 4.22 | L 2.65 | N 5.16 | G 5.18 | F 2.34 | S 4.46 | A 4.68 | H 4.74
I7: Y 5.32 | G 5.6 | H 5.23 | A 5.57 | F 4.96 | L 4.86 | P 5.47 | C 5.04 | W 4.79 | T 5.67 | M 5.24 | E 5.78 | K 5.23 | S 5.58 | N 5.66
G20: R 4.89 | T 5.41 | Q 4.75 | E 5.62 | D 5.56 | I 5.29 | K 5.28 | H 5.53 | Y 5.09 | P 4.97 | A 5.24 | M 4.83 | F 4.18 | W 4.73 | N 5.31 | V 4.97 | L 5.04 | C 5.3
A4: N 5.58 | P 5.53 | F 4.44 | M 4.81 | G 5.29 | Y 4.79 | W 4.53 | I 4.37 | S 5.24 | C 4.74 | H 4.7 | K 5.49 | L 5.34 | E 5.57 | T 5.27
N24: A 5.27 | G 5.53 | L 4.79 | Y 4.91 | M 4.95 | F 4.53 | I 4.51 | E 5.28 | R 4.91 | S 5.51 | D 5.42 | T 5.54 | W 4.39 | K 5.03 | P 5.14 | C 5.25 | H 5.28
G12: W 4.62 | N 5.09 | A 5.5 | R 4.87 | Y 5.05 | T 5.38 | Q 5.44 | P 5.52 | C 4.6 | V 5.16 | L 4.93 | F 4.76 | K 5.2 | D 5.61 | S 4.37
